Experimental findings from publication PMC3091952 are described below.

What all share (assay): pull-down
In assay [1] the target is PAD4 R123Q, labelled with BFA (human) (UniProt Q9UM07).
Assay [2] concerns the target PAD4 R419Q, labelled with BFA (human) (UniProt Q9UM07).
Assay [3] concerns the target PAD4 R484Q, labelled with BFA (human) (UniProt Q9UM07).
The target in assay [4] is PAD4 R609Q, labelled with BFA (human) (UniProt Q9UM07).
Assay [5] concerns the target PAD4 R639Q, labelled with BFA (human) (UniProt Q9UM07).

As for “Histone Deacetylase 1 (HDAC1) (from UniProt Q13547 1-482) (enzyme)”, the fold decrease of affinity against wild type PAD4 in assay [1] came out at 3.3 fold; in assay [2], 1.4 fold; in assay [3], 1.4 fold.

For the substance “Protein Arginine Methyltransferase 1 (PRMT1) (from UniProt Q99873 1-371) (enzyme)”, the fold reduction of affinity against wild type PAD4 in assay [1] turned out to be 2 fold; in assay [3] it was 10 fold; in assay [4] it was 3.3 fold; in assay [5] it was 5 fold.
